Measurements taken from PMC6344876.
pKd: −log10 of the molar value.

Experiments:
[1] = tested on: eIF2 heterotrimer with eIF2γ-I318M (His-tagged) (Saccharomyces cerevisiae); experiment: filter binding; settings: aminoacylated with Met; Filter binding: 25 mM HEPES-KOH pH 7.6, 2.5 mM Mg(OAc)2, 80 mM KOAc, 2 mM DTT, 0.5 mM GDPNP-Mg2+, 1 nM tRNA, 3.125-200 nM eIF2, 26 C; pull-down: 20 mM Tris-HCl …
[2] = tested on: eIF2 heterotrimer (WT eIF2γ, His-tagged) (Saccharomyces cerevisiae); experiment: filter binding; settings: aminoacylated with Met; Filter binding: 25 mM HEPES-KOH pH 7.6, 2.5 mM Mg(OAc)2, 80 mM KOAc, 2 mM DTT, 0.5 mM GDPNP-Mg2+, 1 nM tRNA, 3.125-200 nM eIF2, 26 C; pull-down: 20 mM Tris-HCl …

Work on “[35S]Met-tRNAiMet (in vitro transcribed)” yielded a pKd [1] of 7.01 and a pKd [2] of 7.74.
